In article PMC7043065 (Cell reports, 2020):

Molecular target: C-X-C motif chemokine 12 (CXCL12) (mouse (endogenous in BM-MSC of C57BL/6 …, UniProt P40224 22-93))
Experiment: cross-linking + co-IP

C-X-C motif chemokine 12 (CXCL12) (mouse, sequence (P40224 22-93): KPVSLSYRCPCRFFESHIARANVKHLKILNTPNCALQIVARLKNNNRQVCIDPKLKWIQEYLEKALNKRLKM

B1: chemokine ligand 2 (CCL2) (natural protein)
chain: not shown
  molar interaction ratio of CXCL12/CCL2: > 1
